Data published in patent US20100104557A1.

Legend:
[1] = target: His-tagged HM1.24 antigen, residues N49-A163 of the extracellular domain (human) (UniProt Q10589); experiment: Biacore (SPR): His-tagged HM1.24 antigen coupled directly to the chip (NHS chemistry), antibody as analyte; simultaneous (global Langmuir) fitting
[2] = target: His-tagged HM1.24 antigen, residues N49-A163 of the extracellular domain (human) (UniProt Q10589); experiment: Biacore (SPR): antibody on a protein A chip, HM1.24 antigen as analyte; antibody post incubation (pH 9, 37 C, 4 days)
[3] = target: His-tagged HM1.24 antigen, residues N49-A163 of the extracellular domain (human) (UniProt Q10589); experiment: Biacore (SPR): His-tagged HM1.24 antigen coupled directly to the chip (NHS chemistry), antibody as analyte; separate kd and ka fitting
[4] = target: His-tagged HM1.24 antigen, residues N49-A163 of the extracellular domain (human) (UniProt Q10589); experiment: Biacore (SPR): antibody on a protein A chip, HM1.24 antigen as analyte; antibody untreated

Sequence of His-tagged HM1.24 antigen, residues N49-A163 of the extracellular domain (human) (Q10589 49-163): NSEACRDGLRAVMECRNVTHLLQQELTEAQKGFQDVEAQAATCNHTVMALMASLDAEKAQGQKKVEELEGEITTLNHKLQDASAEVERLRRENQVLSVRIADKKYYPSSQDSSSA

B1: Antibody comprising the HM1.24_H2.2 heavy chain variant and the HM1.24_L4 light chain (antibody, V domains shown)
VH: EVQLVESGGGLVKPGGSLRLSCAASGYTFTPYWMQWVRQAPGKGLEWMGSIFPGSGDTRYSQSFQGQVTISADKSISTAYMELSSLRSEDTAVYYCARGLRRGGYYFDYWGQGTLVTVSS
VL: DIVMTQSPLSLPVTLGQPASISCKASQDVNTAVAWYLQKPGKSPKLLIYSASNRYTGVPDRITGSGSGTDFTLKISRVEAEDVGVYYCQQHYSTPFTFGSGTKLEIKR
- Kd [1]: 0.0826 nM
- koff [1]: 7.27e-05 s⁻¹
- kon [1]: 879000 M⁻¹ s⁻¹
- koff [2]: 0.00257 s⁻¹
- Kd [3]: 0.0732 nM
- koff [3]: 7.02e-05 s⁻¹
- kon [3]: 958000 M⁻¹ s⁻¹
- koff [4]: 0.00287 s⁻¹
